Experimental data as given in article PMC6238531, “The ER morphology-regulating lunapark protein induces the formation of stacked bilayer discs” (Life Science Alliance, 2018).

Molecular target: T1, SBP-tagged full-length human Lnp (human, UniProt Q9C0E8 1-428)
T1 construct: lunapark (Lnp), human, full length; a tobacco etch virus protease cut site stands between Lnp and the SBP tag; Membrane protein with two TM segments, kept in 0.05% Triton X-100 in the pull-down; also called lunapark; SBP-tagged human Lnp; source: S. cerevisiae (pRS425, GAL1 promoter), purified in Triton X-100 (streptavidin resin, biotin elution, SEC on Superose 6); not shown: SBP, C-terminal, kept
T1 sequence (looked up): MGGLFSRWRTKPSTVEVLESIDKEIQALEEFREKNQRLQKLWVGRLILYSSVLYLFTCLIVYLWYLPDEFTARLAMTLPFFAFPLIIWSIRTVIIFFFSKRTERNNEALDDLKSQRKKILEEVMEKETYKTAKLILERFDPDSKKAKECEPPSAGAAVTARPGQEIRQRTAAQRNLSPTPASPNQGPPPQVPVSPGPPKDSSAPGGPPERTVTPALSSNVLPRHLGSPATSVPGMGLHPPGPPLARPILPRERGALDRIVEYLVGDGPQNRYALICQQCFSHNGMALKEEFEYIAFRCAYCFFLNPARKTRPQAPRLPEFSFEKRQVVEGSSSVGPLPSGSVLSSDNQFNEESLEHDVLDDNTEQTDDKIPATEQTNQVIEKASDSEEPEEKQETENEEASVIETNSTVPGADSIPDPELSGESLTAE
Experiment: pull-down; SBP-tagged human Lnp mixed with His10-tagged Lnp (molar ratio 1:3 or 1:5), 1 h at 4°C in 20 mM Hepes pH 7.5, 100 mM KCl, 1 mM dithiothreitol, 0.05% Triton X-100; held on streptavidin resin, washed, eluted with 2 mM biotin; SDS-PAGE and Coomassie blue staining
Conditions: both partners purified

binding result: binds
B1: His10-tagged full-length human Lnp (natural protein, UniProt Q9C0E8 1-428, looked up)
chain: T1 sequence (looked up)
notes: lunapark (Lnp), human, full length, cloned into pET21b; also called lunapark; source: E. coli BL21-CodonPlus (DE3)-RIPL, purified in Triton X-100 (Ni-NTA, SEC on Superose 6); not shown: His10, C-terminal, kept
